Laboratory results: patent US20130274185A1, “Pharmaceutical for Pseudo-Exercise Therapy” (THE UNIVERSITY OF TOKYO, priority 2010, published 2013)
Entries after “also recorded” stand apart in the source; their conditions may differ.

Key:
[1] = system: CaMKI; assay: CaMKI phosphorylation in C2C12 myocytes; format: cell-based, mouse; details: adiponectin 30 μg/ml, 0-20 min
Experimental: (§1) The mouse C2C12 myoblasts were grown in 90% Dulbecco's modified high glucose Eagle's medium containing 10% (v/v) fetal bovine serum. When the cells reached 80% confluent, the myoblasts were induced to differentiate into myocytes by replacing the medium with a low serum differentiation medium (98% Dulbecco's modified high glucose Eagle's medium, 2.5% (v/v) horse serum). The medium was changed daily. The C2C12 cells were transfected by using Pofectamine 2000 (Invitrogen) and following the manufacturer's instructions.

[2] = system: AMPK; assay: AMPK phosphorylation in C2C12 myocytes; format: cell-based, mouse; details: C2C12 myocytes, adiponectin 30 μg/ml
Experimental: as §1

[3] = system: soleus muscle; assay: Calcium imaging in skeletal muscle (soleus); format: cell-based, mice; details: adiponectin 30 μg/ml
Experimental: From 8-10 weeks-old mice, soleus muscles were dissected. Preparations were treated with 5 μM fura-2/AM in the presence of 0.1% Chremophore EL (Sigma) for 15 min. Fluorescence images were acquired using an inverted fluorescence microscopy (IX71, Olympus) equipped with a cooled charge-coupled device (CCD) camera (iXon, Andor) and a dry objective lens (10×, NA=0.3, Olympus) through a filter set consisting of a 327-353 nm and 369-391 nm excitation filter, a 409 nm dichroic mirror, and a 515-560 nm fluorescent filter. Ligands were supplied using the superfusing Ringer's solution (150 mM NaCl, 4 mM KCl, 2.0 mM CaCl2, 1.0 mM MgCl2, 30 mM D-glucose, 5 mM HEPES (pH 7.4)).

[4] = system: PGC-1α (Ppargc1a); assay: PGC-1α (Ppargc1a) expression in C2C12 myocytes; format: cell-based, mouse; details: C2C12 myocytes, adiponectin 10 μg/ml 1.5 hours
Experimental: (§2) Real-time PCR was carried out according to the method described in the following documents (Nature Med. 13, 332-339 2007); Nature 423, 762-769 (2003); J. Biol. Chem. 281, 8748-8755 (2006)). Total RNA was prepared from cells or tissues by using Trizol (Invitrogen) according to the manufacturer's instructions. Quantification of mRNA was conducted using a real-time PCR method (Nature 423, 762-769 (2003)) with slight modifications. The procedures used for immunoblotting are described in the following documents (Nature Med. 7, 941-946 (2001); J. Biol. Chem. 281, 26602-26614 (2006); J. Biol. Chem. 281, 8748-8755 (2006)). The livers or muscles were freeze-clamped in liquid nitrogen in situ (Nature Med. 7, 941-946 (2001); J. Biol. Chem. 281, 26602-26614 (2006); J. Biol. Chem. 281, 8748-8755 (2006)).
as §1

[5] = system: PGC-1α (Ppargc1a); assay: Ppargc1a mRNA levels in skeletal muscle in vivo; parameters: species or system mice; details: control littermates; 30 μg per 10 g body weight, 10 min
Experimental: Mouse full-length adiponectin was generated as described in the following documents (Nature Med. 8, 1288-1295 (2002); Nature Med. 7, 941-946 (2001); Nature 423, 762-769 (2003)).
as §2

[6] = system: C2C12 myocytes; assay: NAD+/NADH measurements in C2C12 myocytes; format: cell-based, mouse
Experimental: NAD^+ and NADH nucleotides were directly measured by the method described in the following document (Nature, 458, 1056-1060 (2009)). Whole skeletal muscles or two 10 cm dishes of C2C12 myocytes were homogenized in 200 μl of an acid extraction buffer to measure the NAD^+ concentration, or 200 μl of alkali extraction to obtain the NADH concentration. Next, homogenates were neutralized and the concentration of nucleotides was measured fluorimetrically after an enzymatic cycling reaction using 5 μl of a sample. Values for both nucleotides were detected within the linear range. NAD^+/NADH ratios were calculated by comparing the ratios obtained from each animal or from parallel cell dishes in each experiment.

[7] = system: C2C12 myocytes; assay: Mitochondrial content assay in C2C12 myocytes; format: cell-based, mouse
Experimental: as §1
Mitochondrial content assays were carried out as described in the following document (Cell Metab. 4, 75-87 (2006)), with slight modifications. Quantification of the mitochondrial content was conducted by using mtDNA and MitoTracker Green probe (Molecular Probes) according to the method as described in the following document (Obes. Res. 13, 574-581 (2005)). MitoTracker Green probe preferentially accumulates in mitochondria regardless of the mitochondrial membrane potential and provides an accurate assessment of mitochondrial mass. Cells were washed with PBS and after addition of 100 nM MitoTracker Green FM (Molecular Probes), incubated at 37° C. for 30 min. Cells were harvested by using trypsin/EDTA and resuspended in PBS. Fluorescence intensity was detected with excitation and emission wavelengths of 490 and 516 nm, respectively, and the values thus measured were corrected for total protein (mg/ml).

[8] = C2C12 myocytes, 30 μg/ml adiponectin

B1: adiponectin (protein, UniProt Q60994 1-247, looked up)
chain: MLLLQALLFLLILPSHAEDDVTTTEELAPALVPPPKGTCAGWMAGIPGHPGHNGTPGRDGRDGTPGEKGEKGDAGLLGPKGETGDVGMTGAEGPRGFPGTPGRKGEPGEAAYVYRSAFSVGLETRVTVPNVPIRFTKIFYNQQNHYDGSTGKFYCNIPGLYYFSYHITVYMKDVKVSLFKKDKAVLFTYDQYQEKNVDQASGSVLLHLEVGDQVWLQVYGDGDHNGLYADNVNDSTFTGFLLYHDTN
modifications: full-length
notes: adipokine, internal ligand of adiponectin receptor 1; recombinant murine full-length adiponectin
- CaMKI phosphorylation [1]: rapid, robust, and transient increase
- phosphorylation of AMPK α-subunits at Thr 172 [2]: increased the phosphorylation of the AMPK α-subunits at Thr 172
- intracellular calcium ion concentration in soleus muscle (fura-2) ([3]; control mice): increased the intracellular calcium ion concentration
- calcium responses of soleus muscle ([3]; muscle-R1KO mice): almost completely disappeared
- PGC-1α expression [4]: increase in PGC-1α expression
- expression levels of Ppargc1a in muscle [5]: increased the expression levels of Ppargc1a in the muscle of control littermates
- NAD+ and NADH contents [6]: increased
- NAD+/NADH ratio [6]: increased a NAD^+/NADH ratio; also recorded: increased the NAD^+/NADH ratio
- mitochondrial biogenesis ([7]; C2C12 myocytes expressing PGC-1α-R13 mutant): failed to further induce mitochondrial biogenesis
- amount of mitochondria as assessed by MitoTracker green [7, 8]: increased
- mitochondrial DNA content [7, 8]: increased a mitochondrial DNA content
